In the first assay the target is T1, HLA-B*08 (human).
T1 construct: MHC monomer made peptide-receptive by UV cleavage of a UV-sensitive ligand; also called peptide-receptive MHC class I monomer
Briefly: UV peptide-exchange ELISA; ++++ = yield >75%. (In general: An ELISA detects its analyte on a solid surface through an enzyme-linked reagent.)
The molecule EAMLRNKEL [EAMLRNKEL (SEQ ID NO: 312)] had a peptide exchange yield of more than 75%.
MAQFKEISL [MAQFKEISL (SEQ ID NO: 299)] had a peptide exchange yield of more than 75%.
Still for that read-out and setting: the same measure for LPFPKFTV [LPFPKFTV (SEQ ID NO: 303)]: more than 75%.
EIRIRVVQM [EIRIRVVQM (SEQ ID NO: 311)]: the peptide exchange yield is more than 75%.
Regarding ALKLRVAVL [ALKLRVAVL (SEQ ID NO: 305)], the peptide exchange yield is more than 75%.
With MLKQKVEEL [MLKQKVEEL (SEQ ID NO: 308)], the peptide exchange yield was more than 75%.
The same measure, in the same setting: the same measure for ILKVKVGL [ILKVKVGL (SEQ ID NO: 306)]: more than 75%; for RAQLKLVAL [RAQLKLVAL (SEQ ID NO: 297)]: more than 75%; for ILLPRTVSL [ILLPRTVSL (SEQ ID NO: 307)]: more than 75%.
Still for that read-out and setting: the same measure for LPPKKFVL [LPPKKFVL (SEQ ID NO: 310)]: more than 75%; for DIYQRALNL [DIYQRALNL (SEQ ID NO: 315)]: more than 75%; for EAAIRSVEL [EAAIRSVEL (SEQ ID NO: 318)]: more than 75%.
Still for that read-out and setting: the same measure for MPMQDIKM [MPMQDIKM (SEQ ID NO: 296)]: more than 75%; for LVKVKVLL [LVKVKVLL (SEQ ID NO: 317)]: more than 75%.
YMHKLLVL [YMHKLLVL (SEQ ID NO: 301)] had a peptide exchange yield of more than 75%.
On the same count and under the same terms, the same measure for ELKKKEYEEL [ELKKKEYEEL (SEQ ID NO: 313)]: more than 75%.
Same read-out and setting: the same measure for ELKKLYCQI [ELKKLYCQI (SEQ ID NO: 304)]: more than 75%; for AIISRLVAL [AIISRLVAL (SEQ ID NO: 314)]: more than 75%.

The target of another assay is T2, HLA-B*44 (human).
T2 construct: MHC monomer made peptide-receptive by UV cleavage of a UV-sensitive ligand; also called peptide-receptive MHC class I monomer
The assay is described as follows: UV peptide-exchange ELISA; ++++ = yield >75%.
VEAPGPVHVYW [VEAPGPVHVYW (SEQ ID NO: 346)] gave a peptide exchange yield of more than 75%.
Still for that read-out and setting: the same measure for IEFIHPQAF [IEFIHPQAF (SEQ ID NO: 345)]: more than 75%; for TENRYCVQL [TENRYCVQL (SEQ ID NO: 337)]: more than 75%.
Still for that read-out and setting: the same measure for SEIGKAVGF [SEIGKAVGF (SEQ ID NO: 489)]: more than 75%; for FEYDFLLQRI (also called FEYDFLLORI) [FEYDFLLQRI (SEQ ID NO: 328)]: more than 75%.
Still for that read-out and setting: the same measure for SEMNVNMKY [SEMNVNMKY (SEQ ID NO: 365)]: more than 75%; for MEVDPIGHVYIF [MEVDPIGHVYIF (SEQ ID NO: 320)]: more than 75%; for SEPALLHSW [SEPALLHSW (SEQ ID NO: 339)]: more than 75%.
For the molecule DELFSIALY [DELFSIALY (SEQ ID NO: 359)], the peptide exchange yield was more than 75%.
In the case of SENLFFASF [SENLFFASF (SEQ ID NO: 361)], the peptide exchange yield is more than 75%.
Same read-out and setting: the same measure for AEVGFVRFF [AEVGFVRFF (SEQ ID NO: 484)]: more than 75%; for AEMLERVIKNY [AEMLERVIKNY (SEQ ID NO: 319)]: more than 75%; for GEIIMQNNW [GEIIMQNNW (SEQ ID NO: 353)]: more than 75%.
Still for that read-out and setting: the same measure for KEADIHFLI [KEADIHFLI (SEQ ID NO: 358)]: more than 75%; for NEVLTYIKF [NEVLTYIKF (SEQ ID NO: 352)]: more than 75%.

For another assay, the target named is T3, HLA-A*24 (human).
T3 construct: MHC monomer made peptide-receptive by UV cleavage of a UV-sensitive ligand; also called peptide-receptive MHC class I monomer
The assay is described as follows: UV peptide-exchange ELISA; +++ = yield >50%.
Turning to RYKQDVERF [RYKQDVERF (SEQ ID NO: 383)], the peptide exchange yield was 50 to 75%.
The same measure, in the same setting: the same measure for RWLPQKNAAQF [RWLPQKNAAQF (SEQ ID NO: 387)]: 50 to 75%; for IYHSHHPTL [IYHSHHPTL (SEQ ID NO: 382)]: 50 to 75%; for VFQEKHHVI [VFQEKHHVI (SEQ ID NO: 380)]: 50 to 75%.

The target of a further assay is T4, HLA-A*01 (human).
T4 construct: MHC monomer made peptide-receptive by UV cleavage of a UV-sensitive ligand; also called peptide-receptive MHC class I monomer
Briefly: UV peptide-exchange ELISA; ++ = yield >20%. The text has this:
(§1) Candidate peptides for T cell based therapies according to the present invention were further tested for their MHC binding capacity (affinity). The individual peptide-MHC complexes were produced by UV-ligand exchange, where a UV-sensitive peptide is cleaved upon UV-irradiation, and exchanged with the peptide of interest as analyzed. Only peptide candidates that can effectively bind and stabilize the peptide-receptive MHC molecules prevent dissociation of the MHC complexes. To determine the yield of the exchange reaction, an ELISA was performed based on the detection of the light chain (β2m) of stabilized MHC complexes. The assay was performed as generally described in Rodenko et al. (Rodenko et al., 2006).
(§2) 96 well MAXISorp plates (NUNC) were coated over night with 2 ug/ml streptavidin in PBS at room temperature, washed 4× and blocked for 1 h at 37° C. in 2% BSA containing blocking buffer. […] Peptide-MHC monomers of the UV-exchange reaction were diluted 100-fold in blocking buffer. Samples were incubated for 1 h at 37° C., washed four times, incubated with 2 ug/ml HRP conjugated anti-β2m for 1h at 37° C., washed again and detected with TMB solution that is stopped with […]. Absorption was measured at 450 nm.
ATDLVVLDRY [ATDLVVLDRY (SEQ ID NO: 136)] had a peptide exchange yield of 20 to 50%.
On the same count and under the same terms, the same measure for GLNTGSALSY [GLNTGSALSY (SEQ ID NO: 146)]: 20 to 50%.

In the next assay the target is T2, HLA-B*44. Briefly: UV peptide-exchange ELISA; ++ = yield >20%.
Source text: as §1, §2
Take GELALKKKI [GELALKKKI (SEQ ID NO: 371)]: the peptide exchange yield lay within 20 to 50%.
The same measure, in the same setting: the same measure for QEQDVDLVQKY [QEQDVDLVQKY (SEQ ID NO: 325)]: 20 to 50%; for ASSSGPMRWW [ASSSGPMRWW (SEQ ID NO: 336)]: 20 to 50%.
Still for that read-out and setting: the same measure for KELEATKQY [KELEATKQY (SEQ ID NO: 335)]: 20 to 50%; for GEFPVRVQV [GEFPVRVQV (SEQ ID NO: 368)]: 20 to 50%; for AEDEPAAAHL [AEDEPAAAHL (SEQ ID NO: 334)]: 20 to 50%.
Consider AEEEIMKKI [AEEEIMKKI (SEQ ID NO: 476)], for which the peptide exchange yield lay in the range of 20 to 50%.
On the same count and under the same terms, the same measure for TEFTTVLY [TEFTTVLY (SEQ ID NO: 343)]: 20 to 50%; for KEVDPAGHSY [KEVDPAGHSY (SEQ ID NO: 322)]: 20 to 50%.
The same measure, in the same setting: the same measure for TEGIIMKDF [TEGIIMKDF (SEQ ID NO: 372)]: 20 to 50%.
The same measure, in the same setting: the same measure for TEFPIIKMY [TEFPIIKMY (SEQ ID NO: 488)]: 20 to 50%; for MEVPVIKI [MEVPVIKI (SEQ ID NO: 332)]: 20 to 50%.
Regarding GEVSGLTKDF [GEVSGLTKDF (SEQ ID NO: 480)], the peptide exchange yield lay within 20 to 50%.
The same measure, in the same setting: the same measure for AENLFRAF [AENLFRAF (SEQ ID NO: 366)]: 20 to 50%.
Still for that read-out and setting: the same measure for SDMVRFHLF [SDMVRFHLF (SEQ ID NO: 355)]: 20 to 50%.

A further assay addresses T5, HLA-B*07 (human).
T5 construct: MHC monomer made peptide-receptive by UV cleavage of a UV-sensitive ligand; also called peptide-receptive MHC class I monomer
The assay is described as follows: UV peptide-exchange ELISA; ++ = yield >20%.
Source text: as §1, §2
FPVTSIFHTF [FPVTSIFHTF (SEQ ID NO: 284)] returned a peptide exchange yield of 20 to 50%.
MPLLWLRGF [MPLLWLRGF (SEQ ID NO: 273)] had a peptide exchange yield of 20 to 50%.
The same measure, in the same setting: the same measure for HPMIDINGIIVF [HPMIDINGIIVF (SEQ ID NO: 278)]: 20 to 50%; for HPELVNHIVF [HPELVNHIVF (SEQ ID NO: 267)]: 20 to 50%.
Same read-out and setting: the same measure for FPQKFIDLL [FPQKFIDLL (SEQ ID NO: 288)]: 20 to 50%.
Same read-out and setting: the same measure for YPENGVVQM [YPENGVVQM (SEQ ID NO: 469)]: 20 to 50%.

These data come from US11352401.
